{
  "source": "paper PMC8169799",
  "about": "(iScience, 2021)",
  "proteins": {"B1": {"name": "copper efflux regulator (CueR), Escherichia coli (natural protein, E. coli)", "chain": "MNISDVAKITGLTSKAIRFYEEKGLVTPPMRSENGYRTYTQQHLNELTLLRQARQVGFNLEESGELVNLFNDPQRHSADVKRRTLEKVAEIERHIEELQSMRDQLLALANACPGDDSADCPIIENLSGCCHHRAG"}},
  "molecular_target": "the molecule itself",
  "test": "cryo-EM structure",
  "data": [
    {"protein": "B1", "values": [
      {"measurement": "stoichiometry N", "result": 2}
    ]}
  ]
}
